This is an account of results in patent publication US20100209439A1 (FORERUNNER PHARMA RESEARCH, published 2010).

The target of this test is T1, Recombinant human Prominin-1 with C-terminal FLAG-tag, forcedly expressed on DG44 cells (human, UniProt O43490 20-865).
T1 construct: whole, on cells; Expressed in DG44 cells; also called Prominin-1 recombinant protein; cells forcedly expressing Prominin-1; not shown: FLAG-tag artificially added to the C terminus
T1 sequence (looked up): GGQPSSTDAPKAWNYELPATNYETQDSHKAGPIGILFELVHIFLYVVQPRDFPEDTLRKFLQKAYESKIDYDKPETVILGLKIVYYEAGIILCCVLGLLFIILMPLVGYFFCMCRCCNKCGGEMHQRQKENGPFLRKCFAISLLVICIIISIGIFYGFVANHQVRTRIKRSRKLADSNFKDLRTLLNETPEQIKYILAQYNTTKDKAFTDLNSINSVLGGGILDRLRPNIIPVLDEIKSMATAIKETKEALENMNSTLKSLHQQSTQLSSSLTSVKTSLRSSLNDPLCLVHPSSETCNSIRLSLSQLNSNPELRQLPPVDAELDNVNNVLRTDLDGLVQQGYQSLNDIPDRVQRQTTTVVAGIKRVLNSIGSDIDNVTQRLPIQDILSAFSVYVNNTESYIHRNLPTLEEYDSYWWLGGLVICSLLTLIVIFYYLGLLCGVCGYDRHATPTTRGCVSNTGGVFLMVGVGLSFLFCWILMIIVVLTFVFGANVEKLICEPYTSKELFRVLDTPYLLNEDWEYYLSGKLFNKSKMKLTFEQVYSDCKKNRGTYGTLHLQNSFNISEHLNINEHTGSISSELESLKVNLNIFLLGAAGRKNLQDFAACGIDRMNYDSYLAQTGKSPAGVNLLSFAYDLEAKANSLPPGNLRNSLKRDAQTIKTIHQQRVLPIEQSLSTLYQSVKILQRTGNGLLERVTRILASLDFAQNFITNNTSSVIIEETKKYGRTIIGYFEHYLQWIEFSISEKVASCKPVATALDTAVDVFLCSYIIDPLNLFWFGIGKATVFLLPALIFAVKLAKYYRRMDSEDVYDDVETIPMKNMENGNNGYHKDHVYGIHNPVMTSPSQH
Put plainly: flow cytometry on DG44 cells forcedly expressing FLAG-tagged human Prominin-1. (In general: In flow cytometry, cells or beads pass a laser one at a time.)

B1: AC133.1 antibody (mouse IgG1, produced by hybridoma HB-12346) (antibody, V domains shown)
VH: QVQLQQSGAELVRPGASVKLSCKASGYTFSDFEMHWVKQTPVHGLEWIGDIDPGTGDTAYNLKFKGKATLTTDKSSSTAYMELRSLTSEDSAVYYCTLGAFVYWGQGTLVTVSA
VL: DVVVTQTPLSLPVSFGDQVSISCRSSQSLANSYGNTYLSWYLHKPGQSPQLLIYGISNRFSGVPDRFSGSGSGTDFTLKISTIKPEDLGMYYCLQGTHQPYTFGGGTKLEIKR
notes: The rest is mouse IgG1 heavy chain and Ig kappa light chain; Purified from hybridoma supernatant on Protein G; also called AC133 antibody; A133.1 antibody
Take B1: the binding result is given as “binds”.
